Publication PMC13624870

What was measured:
[1] = molecular target: uniformly 15N-labeled Aβ40; assay: NMR titration; 2D 1H–15N SOFAST–HMQC of 20 µM 15N-labeled Aβ40 with 200 µM ZF2–4 or ZFx′; 20 mM HEPES, pH 7.4, 1 mM DTT, 10% v/v D2O; 10°C
amyloid-β 40 (Aβ40) [2] = molecular target: amyloid-β 40 (Aβ40)
amyloid-β 40 (Aβ40) [3] = assay: ITC; ZF2–4 (300 µM) titrated into monomeric Aβ40 (20 µM); one-set-of-sites model; 20 mM HEPES, pH 7.4, 1 mM DTT; 10°C; heat of dilution of ZF2–4 subtracted
[4] = molecular target: fluorophore-conjugated Aβ40 (HF488Aβ40); assay: other fluorescence titration; fluorescence quenching of fluorophore-conjugated Aβ40 (HF488Aβ40) by ZF2–4; conditions in Figure S9

average decrease in NMR signal intensity of 15N-labeled Aβ40 [1]: 41.9%
decrease in the size of Aβ40 liquid droplets (LLPS, confocal microscopy) with equimolar ZF2–4 (100 µM each) relative to Aβ40 alone (amyloid-β 40 (Aβ40) [2]): 93.7%
Kd (amyloid-β 40 (Aβ40) [3]): 1.96 µM
dH (amyloid-β 40 (Aβ40) [3]): -1.31 kcal/mol
stoichiometry N (Aβ40 per ZF2–4) (amyloid-β 40 (Aβ40) [3]): 1.7
Kd [4]: 0.32 µM
stoichiometry N (Aβ40 per ZF2–4) [4]: 1.5
Substance: ZF2–4 (tandem array of three Cys2His2-type zinc finger modules of PARIS) (domain or fragment)
